Our source for the amyloid nucleation score values is the supplement of paper PMC12042874.

± gives the uncertainty stated by the source.

This series can be described thus: amyloid nucleation score (Sup35N fusion, yeast selection) (log enrichment); library NNK3; higher = more nucleation; inactive = no reads after selection. Summed up: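 For the nucleation score, DiMSum gave the log enrichment of output over input reads, centred on the mode score of non-aggregating sequences. Psi-negative yeast expressing Sup35N fused to peptides of 20 random codons were induced with 100 μM copper sulfate for 24 hours and grown 7 days at 30°C on medium lacking adenine and uracil. Input and output plasmid inserts were Illumina-sequenced, and sequences with under 100 input reads were excluded.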

With SSMSRVCEIKVLYNMSGVYT, the amyloid nucleation score result was “inactive”. Under GSACFPYFYTYSFRFLVAC stands “inactive”. The figure for MILNINVMYYFMYEGKIVMP is 2.7 ± 0.049; for HRREMSHCKREPWKSINFYW it is “inactive”; for SAYLELLLRSFAVICNLSLT it is 2.31 ± 0.061.

With IIGWDDFLLVYNIKLYHNS, the amyloid nucleation score entry was “inactive”. Under ELGGFFNEAGVTNHPIMS stands “inactive”; under RHWTGCSNQESRTGCGACCI, “inactive”; under ILNYLRENCQKVTGRGA, -0.679 ± 0.96.

In the case of SFRGTSARYFMLVGVLGIFV, the amyloid nucleation score is -0.2 ± 1.2. Under ILASKALQQLLQGLTLV stands -0.375 ± 0.98. Under YRMTGKLYAVIECSDTVLSG stands “inactive”; under TGLVMNKLHLMCDMYGIISL, “inactive”; under FTCPASST, “inactive”. The entry for VWAYFDMFDTFCYKVTARMK is “inactive”; for LNLTGVISNLRVVNGQ it is “inactive”; for IQDHYSDPAN it is “inactive”. Consider FNATCVVGHQVSVCNPWDAH, for which the amyloid nucleation score entry is “inactive”. Under PIIFNFLRIM stands 1.7 ± 0.058; under LFWYTAH, -0.361 ± 0.38.

As for VCSDGLNWGHGVRMLWY, the amyloid nucleation score entry is “inactive”. The entry for LGNKGNEMPLRSKVKRWFLL is “inactive”; for YALLKHSTWYRVGQF it is “inactive”. Under GVGNWKP stands “inactive”; under MSGVDYLTRLFVYTNESDAV, “inactive”; under ECLLPKIAMHVKRMVPQFGT, “inactive”. In the case of YIVSSSD, the amyloid nucleation score entry is “inactive”. For the substance SLRFISSLWV, the amyloid nucleation score result is “inactive”. Under SHQFYMSARTNW stands 0.701 ± 0.24; under GQWLSDTR, “inactive”. Under AFDTILAEYLCYFLL stands 1.7 ± 0.1; under SEAMFSIVLKECNGGACR, “inactive”. Under VFRLLVDKYCGFSPVGLPDV stands “inactive”; under HIHEDWFFS, “inactive”; under FMTFPRASADRDFFSRVLHL, “inactive”. LYRCDDGCSIRTVRDYWWVS: the amyloid nucleation score result was “inactive”. Under DLSKTGTSNNLLFTERISDI stands “inactive”; under PGWLPQGMDNNSLTAVCVTI, “inactive”. Under AVLVDSWRWERFYFMTTIKT stands “inactive”.

For IESSYFNNNRFGRHVVKQVG, the amyloid nucleation score entry is “inactive”. Under AIYAHYYRTWVFWYYMVPGC stands “inactive”; under FFVMCARGHTMRSYTFFVK, “inactive”; under SMLLVGTPDIIGDS, “inactive”. Under RGIEVMDLTLARAHKRA stands “inactive”; under FYLYPDVERLNFCIMVRHMF, “inactive”. Under FTRSLETYYFGKNDVWFSLS stands “inactive”; under DDDRGGSTMTATHRRRMWHL, “inactive”; under SLHWVYYIINYTVALTGVLL, “inactive”. Consider FWTGVACNTAGCCLGYESLR, for which the amyloid nucleation score result is “inactive”. Under LNFCFHYCI stands 1.54 ± 0.12.

LLSLIT: the amyloid nucleation score entry is “inactive”. Under FYRFFDSV stands “inactive”; under TARDESSGV, “inactive”; under PTAFCNSSQYV, “inactive”. The entry for GVRLNEIGRIMIRQACGIWE is “inactive”. Under RLYYRLQTKQAVWCNHPAPT stands “inactive”. On to YNRFKKLSMA, for which the amyloid nucleation score entry was “inactive”. LWFPVEGGYPPSDVKQKHIS gave an amyloid nucleation score of 0.086 ± 0.31. Under FLSYTPRATGYHFFRLSIFC stands “inactive”. The figure for STLQVVEKPKIAPSLRCDSC is -0.169 ± 0.51; for GWNILLNLNIEYSTLYIVNL it is 2.44 ± 0.06; for IKLFLIHTTPSFPNTREHDL it is “inactive”. The entry for DVMKICMKLSLHICTVHISS is “inactive”; for WYMECTVACSSIICSWKWGL it is “inactive”; for SFRSPMDIVLLFVMCSVLAR it is “inactive”. Take AVNYMYSQSMKIVRDCFVIV: the amyloid nucleation score entry is “inactive”. For DVALCKYFGLNTIVNSFLAM, the amyloid nucleation score came out at 1.42 ± 0.081. As for TYKHNSTYIKPLTSFLQSGG, the amyloid nucleation score entry was “inactive”. Under NNPSHGTRQNTYSALGWDHT stands “inactive”. Under LIGDNRTGEVALYRFGSRMG stands “inactive”.

Regarding PKFAHSEHVVNSNLFYCVEA, the amyloid nucleation score result was “inactive”. Under CSILACSA stands “inactive”; under QSSKDTWRCASDKYERSGKR, “inactive”. The figure for RLWWS is -0.186 ± 0.98; for TICQADSRSSFQGLDCRRVR it is -1.01 ± 2.5. Under FWNSFHFVNNYWHVY stands “inactive”; under IHCLLLDRVTNLFLTMQAG, “inactive”. The substance QTVKHIKICGVCWVSMLMF registered an amyloid nucleation score of 2.07 ± 0.086. On to WDLITL, for which the amyloid nucleation score result is “inactive”. The entry for VEFTN is “inactive”; for VCCCHLCL it is 0.17 ± 0.56; for GCSLGTHSVTLTFM it is “inactive”. Turning to LLDCFKLYSSHLAEGRTTVT, the amyloid nucleation score result was “inactive”. The entry for TMLWYLDDSSSNIREKSHGM is “inactive”; for YVYGKNGARGDSIREMGPSE it is “inactive”; for LFLVIYYVFMYVA it is “inactive”. Turning to NYYNLYCLTVLQKRLQAGMQ, the amyloid nucleation score entry is “inactive”. Under TFCSTCGDLWGSDFKCGFRV stands “inactive”; under GCLRDPTVAQVDYLGYGVRL, “inactive”.

Consider RSLFSISAVIEICMLWSV, for which the amyloid nucleation score result was “inactive”. Under SWCVDTSIQFPKAFNIVCGF stands “inactive”; under TPRKVVDNGGLIDFKVYRLL, “inactive”. The entry for FHEFSTSFWSFEASLLTARL is “inactive”.

NIRKPDMYLITVCWESSQAL: the amyloid nucleation score result is “inactive”. The entry for HLDQNLWPKQKQAHTLRTKW is “inactive”; for DKRNSLGCGLNYGFKADDGW it is “inactive”; for WNYGTALMLRQIGSGFICIY it is “inactive”.

On to QWIVDFCNCTWEVVRVLRFC, for which the amyloid nucleation score entry was “inactive”.

Regarding SFICGINNELVK, the amyloid nucleation score entry was “inactive”. Under TRYGNW stands “inactive”; under LVVLLFYFCYSHGYDEKVQW, 0.996 ± 0.12.

In the case of LRTLALPSSVFVRDVHYY, the amyloid nucleation score turned out to be 0.987 ± 0.15.

As to MQYLIYPTWLVIELNC, the amyloid nucleation score came out at 0.684 ± 0.13.

On to TTMWFLWEVSGYCHKCN, for which the amyloid nucleation score result was “inactive”. On to CVLSVEYGHNQEDAITMRCE, for which the amyloid nucleation score entry is “inactive”. Under RNSMGVILKVCLGRN stands 1.66 ± 0.091; under TIFGCRSSQCSMFVLVFDFY, 1.51 ± 0.12.

For LNQGHYSVDLSSATGTVTTF, the amyloid nucleation score result is “inactive”. In the case of SHLFREIDITWSCSLVISCN, the amyloid nucleation score entry was “inactive”. Regarding KLCGHIIYCVV, the amyloid nucleation score result is “inactive”.

GRYCWCSLLAKYEMSLPRAR: the amyloid nucleation score is -0.405 ± 0.8. The entry for IYIRRVRISVEATLRHCCVI is “inactive”; for GRIFYWRDMDTYQR it is “inactive”; for TLGRNCLVQRSCMGRSSECD it is “inactive”. The entry for LIFALRFSLSVSCSCAKCFR is “inactive”; for DLFKTVPYRWGFRYHIGIYM it is “inactive”; for SQACNHLVADRSTIGELSRM it is “inactive”.

In the case of YRFYLVSVVFKTDEVARKSE, the amyloid nucleation score result was “inactive”. On to WTGMPRTGWDGPRYKALSRS, for which the amyloid nucleation score entry was “inactive”.

Turning to FVVGHENNFLKFANSLSRL, the amyloid nucleation score entry was “inactive”. The entry for RRVMIALRYRRYGEFTEAYP is “inactive”; for NSFLRVIVC it is “inactive”; for YVRLWVEDWETFSKMGSQIL it is “inactive”. The entry for FYKLRHQVRTKISERYLPDS is “inactive”; for EVSWD it is “inactive”. Under TSVSKFKPVLHYNRTGSHGF stands “inactive”; under SNEEYGGSQKETCTIGSSLG, “inactive”; under SVYDCQLVACHLMRDHKK, “inactive”. On to LCNSVRNGNYYTGYGVTLYV, for which the amyloid nucleation score entry was “inactive”. The entry for CNDGSHCLGYY is “inactive”.
